Source: patent publication US20110053841A1

Target: FGFR3
Test: cell-based or functional assay

| concentration inducing a growth response of FDCP-FGFR3 cells (XTT) [ng/mL] | concentration at which FDCP-FGFR3 cells proliferate (XTT) [ng/mL] | Substance |
| --- | --- | --- |
| > 25 | – | FGF4^Δ78 (from UniProt P08620 79-206) (ligand) |
| – | > 0.1 | FGF4^Δ54N165R (from UniProt P08620 55-206) (ligand) |
